{"source": "patent US20230057177A1", "about": "(CULLGEN SHANGHAI, published 2023)", "key": {"[1]": {"target": "T1, His-DDB1 (human DNA damage-binding protein 1 with N-terminal His6-tag) (human, UniProt Q16531 1-1140)", "T1 construct": "Vector-derived residues between the His6-tag and DDB1 (pFastBacHTB) are not described; also called His-DDB1 proteins", "T1 sequence (Q16531 other isoform, or with tags, fused parts or gaps limits assumed)": "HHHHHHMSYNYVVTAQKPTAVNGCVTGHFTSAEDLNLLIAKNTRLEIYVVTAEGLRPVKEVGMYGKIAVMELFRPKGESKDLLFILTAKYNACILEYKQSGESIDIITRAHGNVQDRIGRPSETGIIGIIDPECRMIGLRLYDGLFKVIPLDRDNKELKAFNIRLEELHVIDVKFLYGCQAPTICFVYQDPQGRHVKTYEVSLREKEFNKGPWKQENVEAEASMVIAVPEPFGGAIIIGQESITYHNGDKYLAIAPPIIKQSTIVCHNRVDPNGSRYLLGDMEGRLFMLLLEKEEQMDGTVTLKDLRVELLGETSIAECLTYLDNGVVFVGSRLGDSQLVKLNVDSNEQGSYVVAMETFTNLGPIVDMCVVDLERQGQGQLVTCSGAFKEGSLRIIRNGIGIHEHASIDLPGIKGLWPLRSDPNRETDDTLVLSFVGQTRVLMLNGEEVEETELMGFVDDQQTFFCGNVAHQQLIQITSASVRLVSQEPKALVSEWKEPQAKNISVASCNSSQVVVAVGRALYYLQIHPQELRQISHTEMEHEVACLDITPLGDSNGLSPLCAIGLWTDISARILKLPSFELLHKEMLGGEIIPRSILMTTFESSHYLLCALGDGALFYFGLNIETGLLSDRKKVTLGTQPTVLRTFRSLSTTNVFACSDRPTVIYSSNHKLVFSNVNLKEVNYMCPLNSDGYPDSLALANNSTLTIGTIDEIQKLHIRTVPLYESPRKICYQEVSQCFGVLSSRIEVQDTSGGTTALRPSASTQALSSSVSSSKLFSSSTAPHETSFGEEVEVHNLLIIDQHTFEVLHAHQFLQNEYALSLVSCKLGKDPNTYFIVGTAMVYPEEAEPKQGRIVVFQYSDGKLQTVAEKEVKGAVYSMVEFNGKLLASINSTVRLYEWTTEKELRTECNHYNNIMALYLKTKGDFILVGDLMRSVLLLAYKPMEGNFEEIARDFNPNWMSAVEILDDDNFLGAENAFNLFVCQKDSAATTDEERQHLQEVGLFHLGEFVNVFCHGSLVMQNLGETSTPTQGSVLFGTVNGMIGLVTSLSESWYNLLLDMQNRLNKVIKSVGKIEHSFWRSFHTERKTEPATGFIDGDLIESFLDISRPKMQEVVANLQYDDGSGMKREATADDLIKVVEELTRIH", "assay": "SPR (Biacore), His-DDB1 amine-coupled on CM5 chip, steady state affinity fit; graded cell, table key: A: Kd < 20 uM"}, "[2]": {"target": "T1, His-DDB1 (human DNA damage-binding …)", "assay": "SPR (Biacore), His-DDB1 amine-coupled on CM5 chip, steady state affinity fit; graded cell, table key: B: Kd 20-100 uM (lower end of the range)"}}, "data": [{"binder": "ILPKVLHKRTLGLS (No terminal modifications are stated for the tested peptide)", "note": "[Peptide 1 (SEQ ID NO: 1)]", "values": [{"measurement": "Kd", "setting": "[1]", "result": "< 20", "unit": "µM"}]}, {"binder": "ILPKVWHKRELGLS", "note": "[Peptide 2 (SEQ ID NO: 2)]", "values": [{"measurement": "Kd", "setting": "[1]", "result": "< 20", "unit": "µM"}]}, {"binder": "ILPKVLHKRTLGL", "note": "[Peptide 3 (SEQ ID NO: 3)]", "values": [{"measurement": "Kd", "setting": "[1]", "result": "< 20", "unit": "µM"}]}, {"binder": "ILPKVLHKRTFGL", "note": "[Peptide 4 (SEQ ID NO: 4)]", "values": [{"measurement": "Kd", "setting": "[1]", "result": "< 20", "unit": "µM"}]}, {"binder": "KVLHKRTLG", "note": "[Peptide 5 (SEQ ID NO: 5)]", "values": [{"measurement": "Kd", "setting": "[1]", "result": "< 20", "unit": "µM"}]}, {"binder": "NFTSRLNRRASFP", "note": "[Peptide 6 (SEQ ID NO: 6)]", "values": [{"measurement": "Kd", "setting": "[1]", "result": "< 20", "unit": "µM"}]}, {"binder": "SRLNRRASF", "note": "[Peptide 7 (SEQ ID NO: 7)]", "values": [{"measurement": "Kd", "setting": "[2]", "result": "20 to 100", "unit": "µM"}]}]}
